Laboratory results reported in the DeepSol protein solubility set.

Test: soluble on expression in E. coli; label from the status in PepcDB or PDB records
For “MSAKIKAWSSNAEKLNSKRKKMEIREELFPSTTCSSSPQANQEISSEDRNSHHPDIASSSSATTCRSSNCFNMDEGILTRDVEMDFSDEIPTFSHNRFSNPVFPPTPSRNSFSTPRVRIISNVEQIPQIKMLRLTIERLKNEKMKYQKKYKSGMAVDFLSKCGLSLSQMEKIKNYLTNSIGYDLLPLVKNTRDLSIQLSMISSFKVSTSFDNKGKVITIVQCMKIAEVLAYRIELLCNSNQFVDDGYTKGVIKIGVVGDAGGGSTKHVMVIAVYDGSDNYSCLKKFIPDVLEQLGKLTKIRYLDKGVQKTAKIVQIATGDCKFQFDILGHQGHSSHNFCFKCFAQNPRGAEERMKIKDMNVDETFHPRTIDLYKACCTPLLPHVAIMFYLIPLLHIIMGIFDKYIFNPLWKYSVTLDNTTCFPILKTRKATLKNAVNLIKSAEEKYQAATGKMKLESHAELKALQSEKLLLDTIVNGTPGGTLEKMEQCWAKFGADKQAWFQSFCGNHLKLLLTPAIVEETFNIFGPNLCPMLLGLKSAMGKLSTIMSLSGNKFLNDSDVLILQNSIRGFVEDLKVAVPEETIILKLHLVVYHAPQMAKDVRNIGRITEPGVESVHAIFNALERRFCNYRDKKRRYIHVLRELMCRNIMNDMTMNTSIPGLSIVPKDATVLPISSQNDLRDPKVVIRDVTAAQKRKNLAKKKINFSSKKRLPQSTKSRNAVPDFSQNVQTSIAFGGNSTKIGFRGLPSNALSRPNPMAITQTCSTSQPITRSHPLVAPPVSYQLPKCSNSLAEKIRASCGQARRSAAESSSTESHVDTNSKKKVYRLKFVQKSREIPKK”, the “soluble on expression in E. coli” value was “not soluble”.
With “YRQSQSRAARLRLLVDTGQELIQLPPEAMRKCVLQRACAFVAMDHGLLLEWGADNGVQTTARHGSKERLSTLETTADPLAIGPQWLERPGTHLPCVLLLPLRGADEGSFGTLVLANSVAISAPDGEDIESLQLLATLLAAHLENNRLLEALVARDRT” the “soluble on expression in E. coli” value was “soluble”.
In the case of “QPAHSLWLDLTQGEEALLKGMKEMHRRNARLALKRVALSVEGEEAFAEFYRLFTETNRRARLLQHDEAYYRAVLKEMNQPLGEAFLALARKDGEALAAGLFVAFAGKVAYLYGGSTRKHPEAKAPMGMHLAAIRHGMARGYRVYDLWGIPKNPRGSHAEGIHRFKEGFGGQRVQFPA”, the “soluble on expression in E. coli” value was “not soluble”.
In the case of “MGHHHHHHSHMKRDELMELIFLGTSAGVPTRTRNVTAILLNLQHPTQSGLWLFDCGEGTQHQLLHTAFNPGKLDKIFISHLHGDHLFGLPGLLCSRSMSGIIQPLTIYGPQGIREFVETALRISGSWTDYPLEIVEIGAGEILDDGLRKVTAYPLEHPLECYGYRIEEHDKPGALNAQALKAAGVPPGPLFQELKAGKTITLEDGRQINGADYLAAPVPGKALAIFGDTGPCDAALDLAKGVDVMVHEATLDITMEAKANSRGHSSTRQAATLAREAGVGKLIITHVSSRYDDKGCQHLLRECRSIFPATELANDFTVFNV”, the “soluble on expression in E. coli” value was “not soluble”.
In the case of “MGSDKIHHHHHHVLNNLGQTRYVVPRPHPQLVTTRTLVMQRIDGFNFDDVTGMQDAGIDTEDVIRTGMVAFMEGALIHGIFHGDLHGGNLFVLPDGRTALLDFGITARLDDDRRRAFLRLMMTATTNDLTGQMAALRDLGALPLDTDLQAVIRDLRLDEAPIDPTTLSGEEMVAEVQRVVKALLSYGARLPKELMLYVKNMVFLDGAIARLAPDLDLLAEVANISMMFASRHGERLMTEIGIDAANMQVNLDSVKAGFGVDLSTDRLTYRELQERRELIQKRMRSHVERTRRSAN”, the “soluble on expression in E. coli” value was “not soluble”.
With “MNCAISGEVPEEPVVSKKSGLLYEKRLIQTHISDYGKCPVTGEPHTLDDIVPIKTGKIVKPKPLHTASIPGLLGTFQTEWDSLMLSNFALEQQLHTARQELSHALYQHDAACRVIARLKKERDESRQLLAEAERQLPAAPEVATSNAALSNGKRGIDDGEQGPNAKKMRLGISAEVITELTDCNAALSQQRKKRQIPKTLASVDALEKFTQLSSHPLHKTNKPGIFSMDILHSKDVIATGGIDTTAVLFDRPSGQILSTLTGHSKKVTSIKFVGDTDLVLTASSDKTVRIWGCSEDGNYTSRHTLKDHSAEVRAVTVHATNKYFVSASLDSTWCFYDLSSGLCLAQVTDASENDVNYTAAAFHPDGLILGTGTAQSIVKIWDVKSQANVAKFGGHNGEITSISFSENGYFLATAALDGVRLWDLRKLKNFRTFDFPDANSVEFDHSGSYLGIAASDIRVFQAASVKAEWNPIKTLPDLSGTGKATSVKFGLDSKYIAVGSMDRNLRIFGLPDDDNTEDSAQDS” the “soluble on expression in E. coli” value was “soluble”.
With “MGSDKIHHHHHHMPTSALDGKDTAAIQAATAEVAVYDRSNWGLIRVSDDDRLRFLHNQSTNDFQSLKPGQGCETVMVTSTARTIDLVSSYVLNDAVILLVSSSRREFLLQWLDRYIFFADKVQLTDITDETATLSIIGPGSDAVVEKLGAGEIIGQPHGNHITIDGGVVAAVGSGLASPGYTLILPVSQKQQVWQQILDSGAVELSDRAWDTLRILQGRPAPDAELTDDYNPLEVGLWQTISFSKGCYIGQETIARLNTYKGVKQHLWGIRLNAPAEIGDSINIGDEKVGKLTSYTETPDGYFGLAYIRSKAGGVGLKVQVGNSEGEVVAIPFVSHEYP” the “soluble on expression in E. coli” value was “not soluble”.
With “MKVTKSEIVISAVKPEQYPEGGLPEIALAGRSNVGKSSFINSLINRKNLARTSSKPGKTQTLNFYIINDELHFVDVPGYGFAKVSKSEREAWGRMIETYITTREELKAVVQIVDLRHAPSNDDVQMYEFLKYYGIPVIVIATKADKIPKGKWDKHAKVVRQTLNIDPEDELILFSSETKKGKDEAWGAIKKMINR” the “soluble on expression in E. coli” value was “soluble”.
In the case of “MGSDKIHHHHHHMDTPINAPLRKLPIGIQSFEKLRSENFLYVDKTALIYRLAQAGNPCFLSRPRRFGKSLLLSSFEAYFQGKKELFRGLAIEKLEKEWLQYPVLHLSLNAEKYDSREGLIDILERQLRQWEELYRTGGEGITHSGRFMTVIRRACEQTGRRVVVLIDEYDKPLLRSFDSQELQHDFRETLTAFYTVLKDADPWLQFVFITGVTKFAQMGIFSNLNQLNDISFDLDYNTLCGMTRAEIEATFSPELEALAVKSNATCRQVMDRLTRQYDGYRFTKDEEFTSMYNPFSVLSALQKRSYGNYWFASGTPTFLVEMLQKTDFDLREMEGIEVNEASLSDDRADINNPIPMIYQSGYLTIKDYDERFRMYTLGFPNEEVKYGFLNFVSPFYTPIAQTDTSFYIGKFIRELESGDVDAFLTRLRCFFAGIPYDLNDRTERHYQTVFYLVFQLMGQFTETEVRSARGRADAVVKTPDYIYVFEFKLNDSAEAALRQIDEKGYLLPYQADGRKVVKVGVAFEKEERNIGEWMIGG”, the “soluble on expression in E. coli” value was “not soluble”.
With “MGSDKIHHHHHHMKVTILLPAYNAALYLRDSLDSIMRQAFKDFDVLLIDDGSMDDTSKIAIEYSNIDRRIKYYKNEKNIGLIKTLNKGLSLAKGEYIVRMDADDIMFDDRLYKQVKYMDSNPECFVCGGQMEYIGGLTGMAPILPQKYEDLLYLSLINCPLYHPTTIIRNSAIKQFGLKYNDSYKHAEDYKFWSDIIFSHPNSIANIKDVVLFYRISNNQITAKYSDEQDLISKIVRRENVQHVLVPYGIKLPEVVNCEIIEKVSSLIRKEHIDAAEILTLVLCMLYMSMENSYVRIKHFILSNDYSLFVKNSSRIKLGLSVLLSGIFSNRGKRFVI” the “soluble on expression in E. coli” value was “not soluble”.
For “MFTYKIGLSTSEHDRFVIDSPQTNLLQSSSWAKIKDSWGNDRLGFYQDDKLVAVASVLIQPLPLGFSMIYIPRGPIMDYQDKELLAFVITSLKKYAKTKRALFVKFDPSLFVTKNLISQEVNINEDTLSIAKDIQALGVEWTGLTEDMAENIQPRFQANIYKEDFTEEQLSKST”, the “soluble on expression in E. coli” value was “not soluble”.
In the case of “QLTAAQELMIQQLVAAQLQCNKRSFSDQPKVTPWPLGADPQSRDARQQRFAHFTELAIISVQEIVDFAKQVPGFLQLGREDQIALLKASTIEIMLLETARRYNHETECITFLKDFTYSKDDFHRAGLQVEFINPIFEFSRAMRRLGLDDAEYALLIAINIFSADRPNVQEPGRVEALQQPYVEALLSYTRIKRPQDQLRFPRMLMKLVSLRTLSSVHSEQVFALRLQDKKLPPLLSEIWDVHE”, the “soluble on expression in E. coli” value was “not soluble”.
In the case of “MGSDKIHHHHHHAPSEAQQFTEFWTPGKPNPSICKSPLLVSTPLGLPRCLQASNVVKRLQKLEDIASLNDGNRAAATPGYQASVDYVKQTLQKAGYKVSVQPFPFTAYYPKGPGSLSATVPQPVTYEWEKDFTYLSQTEAGDVTAKVVPVDLSLGAGNTSTSGCEAEDFANFPAGSIALIQRGTCNFEQKAENAAAAGAAGVIIFNQGNTDDRKGLENVTVGESYEGGIPVIFATYDNGVAWSQTPDLQLHLVVDVVRKKTETYNVVAETRRGNPNNVVMVGAHLDSVFEGPGINDNGSGSAAQLEMAVLLAKALPVNKVRFAWWGAEEAGLVGSTHYVQNLAPEEKKKIKAYLNFDMIGSPNFGNFIYDGDGSDFGLQGPPGSAAIERLFEAYFRLRGQQSEGTEIDFRSDYAEFFNSGIAFGGLFTGAEGLKTEEQAQKYGGTAGKAYDECYHSKCDGIANINQDALEIHSDAMAFVTSWLSLSTKVVDDEIAAAGQKAQSRSLQMQKSASQIERWGHDFIK”, the “soluble on expression in E. coli” value was “not soluble”.
For “HEEHLMVPKGVEVYEINGPYFFGIATKFEEIMSELGDRPKVRIVRMRKVPFIDSTGIHNLTNLCEMSKKENIQIVLSGVNEKVHQILEKSGFNELLGKENICPNINVALEKAK”, the “soluble on expression in E. coli” value was “not soluble”.
With “MNEETHNKKWQITHRKIQEIVFHLLKEHPIKEISVSQVCKKANINRSTFYDHFEDIYELFDVTQLNKRKELFESFIKQSNPRDKFNFYDLQSLTQFLTFIKENGWIYSIVLKSRQDFPITEGFEELYKVLINPLKKKRPELTDNELAYYFIAFQSSFTFILKRWSDNDYQEKEKEIAAILINSMPLILKNK” the “soluble on expression in E. coli” value was “soluble”.
For “ALHEATRDLLGADSPSTVAAEVGAAIESILEFRINVIRVHRDGQLQPVHVNDKAEELLAERPTYDVGEGFPGEAFEEQQASVYTDIRDHDGGTALEPVVSWLYVPISEYGIISVGQTDPDAFDETDLNLVQIIASNAEVALQRLQKERELQRENDRLEQFASTVS”, the “soluble on expression in E. coli” value was “not soluble”.
In the case of “MSLAEPVLGDDGLYQLDWYLQSFLDLKEDLEGATAKGKRFAILWGLKGCPYCKKLHDVHMRDPAIESYIRDNFEIVHLNHIGAREVTDFDGSKLSEKAFAQAYGIRFTPSLQFFPESADGLAAKKPQDREVARMPGLLEPPEFLAMFKYVREKGYQSMPFTDWLKREGHHHHHH”, the “soluble on expression in E. coli” value was “soluble”.
For “VMPFTEHDKIILRSYEAVVDGIASLIGPFCEIVLHSLEDLNTSAIKIANGENTGRQVGSPITDLALKMLKDIEGSERNFSRSYFTRAKGGVLMKSITVAIRNGENRVIGLLCINVNLDAPFSQVLQSFMPTQEAKEAA”, the “soluble on expression in E. coli” value was “soluble”.
With “MVKEPGGKHVLCVGAAVLDTLFRVADMPKGEGKVLPYEVLQIAEGMASSAAYAVHRMGGRASLWGAVGDDETGTRILRDLSESGIDTSGMTVAPGARSALSTIIIDNRGERLIVPFYDHRLHEKKRACTPEDIALFDAVLVDVRWPELALDVLTVARALGKPAILDGDVAPVETLEGLAPAATHIVFSEPAATRLTGLETVKDMLPVLHARYPQTFIAVTAGPAGCWWTEADDPTVHFQTTMQVEAVDTLAAGDIFHGTFALAMAEGMQSRAAVRLSSVAAALKCTVFGGRIGAPTREETEEAMRQWLERESEPALRAS” the “soluble on expression in E. coli” value was “soluble”.
